Literature values in patent US20220241413A1, “COMBINATION THERAPIES USING CD-38 ANTIBODIES” (Takeda Pharmaceutical Company Limited, priority 2019, published 2022).
Where two headings read alike, the source gives them in different places.

Key:
[1] = cited from earlier work
[2] = IV, patients with RRMM, doses up to 24 mg/kg; cited from earlier work
[3] = tested on: RBCs and platelets; details: cited from earlier work
[4] = tested on: NK cells; details: IV, patients with RRMM, doses up to 24 mg/kg; cited from earlier work
[5] = cited from earlier work; remark: listed apart in the source
[6] = SC formulation with hyaluronidase

## daratumumab: first approved anti-CD38 drug, anti-CD38 IgG1 antibody
[1]; IV administration
  incidence of IRR, Grade 3 or higher: ≤ 9%
  incidence of IRR, all grades: ≥ 50%
[1]; [6]
  incidence of IRR, Grade 3 or higher: 8%
  incidence of IRR, all grades: 16%
[1]; SC
  Grade 3 and 4 TEAE: hypertension: 8%
  Grade 3 and 4 TEAE: lymphopenia: 20%
  Grade 3 and 4 TEAE: neutropenia: 8%
  Grade 3 and 4 TEAE: thrombocytopenia: 8%
  injection site reactions (induration, erythema, discoloration, hematomas): 16.7 % of patients
[1]; binding to CD38 on RBCs
  persistence of positive indirect Coombs test results after the last infusion: up to 6 months
[1]; human, in vivo
  patients with severe and serious IRRs, including anaphylactic reactions: approximately half
[2]
  mean Cmax: > 500 µg/mL
[3]
  binding to RBCs and platelets: strongly bind
[4]
  comparable depletion of NK cells (to >90% with AB79): not achieved

## MOR202: anti-CD38 IgG1 antibody, used clinically via IV infusion
[5]; RRMM, IV infusion
  Grade ≥3 TEAE: hypertension: 9%
  Grade ≥3 TEAE: leukopenia: 11%
  Grade ≥3 TEAE: lymphopenia: 18%
  TEAE at any grade: anemia: 34%
  TEAE at any grade: fatigue: 32%
  TEAE at any grade: infusion-related reactions (IRRs): 30%
  TEAE at any grade: leukopenia: 30%
  TEAE at any grade: lymphopenia: 25%
  TEAE at any grade: nausea: 25%
  patients with Grade ≥3 TEAEs: 64%
[5]; in vivo, iv
  infections: 59%

## isatuximab: anti-CD38 IgG1 antibody
[3]
  binding to RBCs and platelets: strongly bind
